The record followed here is ChEMBL document CHEMBL1142160, “Overexpression and initial characterization of the chromosomal aminoglycoside 3'-O-phosphotransferase APH(3')-IIb from Pseudomonas aeruginosa” (2007).

Substrate in series [1]: NC[C@@H]1O[C@@H](O[C@H]2[C@H](O)[C@@H](O[C@H]3O[C@H](CO)[C@@H](O)[C@H](N)[C@H]3O)[C@H](N)C[C@@H]2N)[C@@H](O)[C@H](O)[C@H]1O
Put plainly: (§1) Activity against Pseudomonas aeruginosa APH(3')-2b expressed in Escherichia coli BL21(DE3) assessed as phosphorylation.

Substrate in series [2]: NC[C@H]1O[C@H](O[C@H]2[C@H](O)[C@@H](O)[C@H](N)C[C@@H]2N)[C@H](N)[C@@H](O)[C@@H]1O
The description is as §1.

Substrate in series [3]: NC[C@@H]1O[C@H](O[C@H]2[C@@H](O)[C@H](O[C@@H]3[C@@H](O)[C@H](N)C[C@H](N)[C@H]3O[C@H]3O[C@H](CN)[C@@H](O)[C@H](O)[C@H]3N)O[C@@H]2CO)[C@H](N)[C@@H](O)[C@@H]1O
The description is as §1.

Substrate in series [4]: NC[C@H]1O[C@H](O[C@H]2[C@H](O[C@@H]3O[C@H](CO)[C@@H](O)[C@H]3O)[C@@H](O)[C@H](N)C[C@@H]2N)[C@H](N)[C@@H](O)[C@@H]1O
Described as §1.

Substrate in series [5]: NCC[C@H](O)C(=O)N[C@@H]1C[C@H](N)[C@@H](O[C@H]2O[C@H](CN)[C@@H](O)[C@H](O)[C@H]2O)[C@H](O)[C@H]1O[C@H]1O[C@H](CO)[C@@H](O)[C@H](N)[C@H]1O
The description is as §1.

Substrate in series [6]: NC[C@@H]1O[C@@H](O[C@H]2[C@H](O)[C@@H](O[C@H]3O[C@H](CO)[C@@H](O)[C@H](N)[C@H]3O)[C@H](N)C[C@@H]2N)[C@@H](O)[C@H](O)[C@H]1O
Put plainly: (§2) Ratio of kcat to km for PH(3')-2b activity. To be noted: Pseudomonas aeruginosa.

Substrate in series [7]: NC[C@H]1O[C@H](O[C@H]2[C@H](O)[C@@H](O)[C@H](N)C[C@@H]2N)[C@H](N)[C@@H](O)[C@@H]1O
The description is as §2. To be noted: Pseudomonas aeruginosa.

Substrate in series [8]: NC[C@@H]1O[C@H](O[C@H]2[C@@H](O)[C@H](O[C@@H]3[C@@H](O)[C@H](N)C[C@H](N)[C@H]3O[C@H]3O[C@H](CN)[C@@H](O)[C@H](O)[C@H]3N)O[C@@H]2CO)[C@H](N)[C@@H](O)[C@@H]1O
The description is as §2. The following applies: Pseudomonas aeruginosa.

Substrate in series [9]: NC[C@H]1O[C@H](O[C@H]2[C@H](O[C@@H]3O[C@H](CO)[C@@H](O)[C@H]3O)[C@@H](O)[C@H](N)C[C@@H]2N)[C@H](N)[C@@H](O)[C@@H]1O
The description is as §2. To be noted: Pseudomonas aeruginosa.

Substrate in series [10]: NCC[C@H](O)C(=O)N[C@@H]1C[C@H](N)[C@@H](O[C@H]2O[C@H](CN)[C@@H](O)[C@H](O)[C@H]2O)[C@H](O)[C@H]1O[C@H]1O[C@H](CO)[C@@H](O)[C@H](N)[C@H]1O
Described as §2. The following applies: Pseudomonas aeruginosa.

B1: Aminoglycoside 3'-phosphotransferase type IIb (Pseudomonas aeruginosa (strain ATCC 15692 / PAO1 / 1C / PRS 101 / LMG12228)), Q9HWR2 (protein)
chain: MHDAATSMPPQAPSTWADYLAGYRWRGQGEGCSAATVHRLEAARRPTLFVKQEVLSAHAELPAEIARLRWLHGAGIDCPQVLNETQSDGRQWLLMSAVPGDTLSALAQRGELEPERLVRLVAAALRRLHDLDPAACPFDHRLERRLDTVRQRVEAGLVDEADFDDDHRGRSATELYRLLLDRRPAVEDLVVAHGDACLPNLLAEGRRFSGFIDCGRLGVADRHQDLALAARDIEAELGAAWAEAFLVEYGGDIDGERLAYFRLLDEFF
For the protein B1, the Km in series [1] was determined as 3.1 µM; in series [2], 10.3 µM; in [3], 17.5 µM; in [4], 10 µM; in [5] it was 440 µM. Moreover, the kcat/Km in [6] came to 360000 M⁻¹ s⁻¹; in series [7], 170000 M⁻¹ s⁻¹; in [8], 120000 M⁻¹ s⁻¹; in series [9], 190000 M⁻¹ s⁻¹; in series [10], 400000 M⁻¹ s⁻¹.
